Assay results as given in article PMC12599251.
Where “and” joins values, the source holds several entries; their conditions need not be identical. Equal entries are not always repeated.

How the values were obtained:
[1] = target: Human Hsp90β (heat shock protein 90 beta), wild type (human) (UniProt P08238); experiment: native gel or EMSA; native PAGE: 20 ug protein (1 mg/ml) on 4-20% polyacrylamide gels in native loading buffer (Tris pH 6.8, 50% glycerol); directly after purification and after incubation at 4°C or 25°C in PBS pH 7.4 for up to 48 h
[2] = target: Human Hsp90β (heat shock protein 90 beta), wild type (human) (UniProt P08238); experiment: AUC; sedimentation velocity, 42,000 rpm, 20°C, 11-15 uM protein, absorbance at 280 nm, continuous c(S) distribution (SEDFIT); peroxynitrite-treated samples dialyzed beforehand
[3] = target: Human Hsp90β treated with 0.5 mM peroxynitrite (human) (UniProt P08238); experiment: as above
[4] = target: Human Hsp90β with 3-nitrotyrosine at position 33 (human) (UniProt P08238); experiment: as above
[5] = target: Human Hsp90β with 3-nitrotyrosine at position 33 (human) (UniProt P08238); experiment: native gel or EMSA; native PAGE: 20 ug protein (1 mg/ml) on 4-20% polyacrylamide gels in native loading buffer (Tris pH 6.8, 50% glycerol); directly after purification and after incubation at 4°C or 25°C in PBS pH 7.4 for up to 48 h
[6] = target: Human Hsp90β with 3-nitrotyrosine at position 33 (human) (UniProt P08238); experiment: AUC; sedimentation velocity, 42,000 rpm, 20°C, 11-15 uM protein, absorbance at 280 nm, continuous c(S) distribution (SEDFIT); peroxynitrite-treated samples dialyzed beforehand; remark: listed apart in the source
[7] = target: Human Hsp90β with 3-nitrotyrosine at position 56 (human) (UniProt P08238); experiment: native gel or EMSA; native PAGE: 20 ug protein (1 mg/ml) on 4-20% polyacrylamide gels in native loading buffer (Tris pH 6.8, 50% glycerol); directly after purification and after incubation at 4°C or 25°C in PBS pH 7.4 for up to 48 h
[8] = target: Human Hsp90β with 3-nitrotyrosine at position 56 (human) (UniProt P08238); experiment: AUC; sedimentation velocity, 42,000 rpm, 20°C, 11-15 uM protein, absorbance at 280 nm, continuous c(S) distribution (SEDFIT); peroxynitrite-treated samples dialyzed beforehand
[9] = target: Human Hsp90β with 3-nitrotyrosine at positions 33 and 56 (human) (UniProt P08238); experiment: as above

Chain of Human Hsp90β with 3-nitrotyrosine at positions 33 and 56, P08238 1-724 (natural protein; 3-nitrotyrosine at 33 and at 56 (sole oxidative modifications); 3-nitrotyrosine at 33 and at 56 (sole oxidative (P08238 whole entry): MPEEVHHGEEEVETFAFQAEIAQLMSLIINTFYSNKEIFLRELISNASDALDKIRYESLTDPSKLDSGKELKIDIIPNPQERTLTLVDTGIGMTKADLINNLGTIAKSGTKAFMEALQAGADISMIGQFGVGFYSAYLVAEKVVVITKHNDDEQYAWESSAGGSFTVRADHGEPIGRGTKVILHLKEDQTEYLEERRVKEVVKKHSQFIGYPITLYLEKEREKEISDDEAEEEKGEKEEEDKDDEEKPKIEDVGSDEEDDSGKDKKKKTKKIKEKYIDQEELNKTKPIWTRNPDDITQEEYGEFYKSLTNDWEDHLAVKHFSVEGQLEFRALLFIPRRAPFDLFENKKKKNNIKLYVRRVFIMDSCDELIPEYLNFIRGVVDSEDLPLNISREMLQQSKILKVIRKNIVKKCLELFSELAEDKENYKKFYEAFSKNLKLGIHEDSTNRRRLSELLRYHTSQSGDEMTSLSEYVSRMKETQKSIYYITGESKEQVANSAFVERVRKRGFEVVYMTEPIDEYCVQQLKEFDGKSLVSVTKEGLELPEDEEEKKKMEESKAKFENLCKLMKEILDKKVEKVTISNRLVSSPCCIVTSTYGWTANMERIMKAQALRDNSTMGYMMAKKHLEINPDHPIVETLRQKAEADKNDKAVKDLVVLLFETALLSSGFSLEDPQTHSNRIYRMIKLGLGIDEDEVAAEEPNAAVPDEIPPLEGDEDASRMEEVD
Chain of Human Hsp90β (heat shock protein 90 beta), wild type, P08238 1-724 (natural protein; other documents disagree on this pair) (P08238 whole entry): as above

Substance “Human Hsp90β (heat shock protein 90 beta), wild type, P08238 1-724 (natural protein; other documents disagree on this pair)” has a stoichiometry N [1] of 2 and a stoichiometry N [2] of 2.
In the case of “Human Hsp90β treated with 0.5 mM peroxynitrite, P08238 1-724 (natural protein; nitration of Y33, Y56, Y276, Y484 and Y596 after treatment with 0.5 mM peroxynitrite; nitration of Y33, Y56, Y276, Y484 and Y596 after treatment with 0.5 mM peroxynitrite; other documents disagree on this pair)”, the stoichiometry N [3] is reported as 2 and 4.
Work on “Human Hsp90β with 3-nitrotyrosine at position 33, P08238 1-724 (natural protein; 3-nitrotyrosine at 33 (sole oxidative modification); 3-nitrotyrosine at 33 (sole oxidative modification); other documents disagree on this pair)” yielded a stoichiometry N [4] of 6, a stoichiometry N [5] of 2 and a stoichiometry N [6] of 2.
For “Human Hsp90β with 3-nitrotyrosine at position 56, P08238 1-724 (natural protein; 3-nitrotyrosine at 56 (sole oxidative modification); 3-nitrotyrosine at 56 (sole oxidative modification); other documents disagree on this pair)”, the stoichiometry N [7] was 2 and the stoichiometry N [8] was 2.
“Human Hsp90β with 3-nitrotyrosine at positions 33 and 56, P08238 1-724 (natural protein; 3-nitrotyrosine at 33 and at 56 (sole oxidative modifications); 3-nitrotyrosine at 33 and at 56 (sole oxidative modifications); other documents disagree on this pair)” was tested, and the stoichiometry N [9] was 2 and 6.
